US5726050

Biological target: double-stranded RNA adenosine deaminase (dsrad, 140 kDa Z-DNA binding protein) (Gallus gallus) (UniProt A0A8V1AB28)
Assay: competition
Conditions: bandshift competition

Chain of UniProt A0A8V1AB28 (A0A8V1AB28 entry or part of it): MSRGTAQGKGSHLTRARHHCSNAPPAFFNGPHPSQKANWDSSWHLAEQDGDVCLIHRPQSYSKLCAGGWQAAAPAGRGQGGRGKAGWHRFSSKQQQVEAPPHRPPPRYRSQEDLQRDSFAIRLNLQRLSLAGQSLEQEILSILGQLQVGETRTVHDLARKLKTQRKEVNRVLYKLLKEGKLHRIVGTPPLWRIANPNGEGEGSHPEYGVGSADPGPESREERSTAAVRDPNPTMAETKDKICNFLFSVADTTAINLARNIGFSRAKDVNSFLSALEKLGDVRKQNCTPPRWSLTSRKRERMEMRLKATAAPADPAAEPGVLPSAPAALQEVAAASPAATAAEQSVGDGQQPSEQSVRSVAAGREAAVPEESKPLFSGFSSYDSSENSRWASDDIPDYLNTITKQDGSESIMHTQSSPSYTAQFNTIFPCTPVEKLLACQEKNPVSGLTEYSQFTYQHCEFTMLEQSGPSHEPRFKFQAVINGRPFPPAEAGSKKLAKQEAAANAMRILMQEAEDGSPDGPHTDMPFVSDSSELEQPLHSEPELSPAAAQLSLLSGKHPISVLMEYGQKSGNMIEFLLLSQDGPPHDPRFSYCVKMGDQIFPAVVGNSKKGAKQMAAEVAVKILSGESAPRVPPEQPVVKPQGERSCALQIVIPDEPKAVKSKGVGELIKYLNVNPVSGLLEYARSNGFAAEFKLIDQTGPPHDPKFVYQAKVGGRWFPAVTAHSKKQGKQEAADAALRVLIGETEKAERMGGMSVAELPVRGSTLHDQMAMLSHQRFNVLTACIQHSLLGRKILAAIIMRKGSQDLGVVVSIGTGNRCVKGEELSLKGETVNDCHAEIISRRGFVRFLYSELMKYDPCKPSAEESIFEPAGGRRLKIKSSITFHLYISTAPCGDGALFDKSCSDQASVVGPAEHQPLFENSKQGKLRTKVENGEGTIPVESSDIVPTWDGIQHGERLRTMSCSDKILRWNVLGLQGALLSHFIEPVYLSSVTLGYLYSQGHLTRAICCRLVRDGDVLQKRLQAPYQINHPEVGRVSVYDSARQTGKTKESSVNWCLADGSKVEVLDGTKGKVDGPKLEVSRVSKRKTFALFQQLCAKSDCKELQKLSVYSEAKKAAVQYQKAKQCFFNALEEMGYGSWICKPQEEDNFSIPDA

Substance	binding signal (reference, bacterial superhelical density) [fold]	binding signal (fold weaker than supercoiled) (relaxed with calf thymus topoisomerase I)
pDHg16 supercoiled plasmid with d(CG)13 insert	1	
pDHg16 relaxed by topoisomerase I		100
